± gives the uncertainty stated by the source.

The record followed here is the Human Domainome abundance scans (Beltran et al. 2025).

Sequences and labels used below:
B1: Gamma-crystallin C, residues 4 to 79; numbered along this chain, P07315 (parent)
chain: ITFYEDRAFQGRSYETTTDCPNLQPYFSRCNSIRVESGCWMLYERPNYQGQQYLLRRGEYPDYQQWMGLSDSIRSC

In this data set the parent is B1. Nature of the data set: abundance fitness (aPCA) (normalised: wild type 0, dead -1); higher = more abundant; growth selection in yeast, the domain comes from the species named. Conditions: Homo sapiens.
On to ITFYEDRAFQGRSYETTTDTPNLQPYFSRCNSIRVESGCWMLYERPNYQGQQYLLRRGEYPDYQQWMGLSDSIRSC [C20T], for which the abundance fitness turned out to be 0.019 ± 0.1. In the case of ITFYEDRAFQGRSYETTTDEPNLQPYFSRCNSIRVESGCWMLYERPNYQGQQYLLRRGEYPDYQQWMGLSDSIRSC [C20E] it was -0.041 ± 0.11; in that of ITFYEDRAFQGRSYETTTDNPNLQPYFSRCNSIRVESGCWMLYERPNYQGQQYLLRRGEYPDYQQWMGLSDSIRSC [C20N], 0.22 ± 0.26; in that of ITFYEDRAFQGRSYETTTDQPNLQPYFSRCNSIRVESGCWMLYERPNYQGQQYLLRRGEYPDYQQWMGLSDSIRSC [C20Q], -0.027 ± 0.16. Turning to ITFYEDRAFQGRSYETTTDFPNLQPYFSRCNSIRVESGCWMLYERPNYQGQQYLLRRGEYPDYQQWMGLSDSIRSC [C20F], the abundance fitness is -0.211 ± 0.23. Regarding ITFYEDRAFQGRSYETTTDYPNLQPYFSRCNSIRVESGCWMLYERPNYQGQQYLLRRGEYPDYQQWMGLSDSIRSC [C20Y], the abundance fitness was -0.079 ± 0.11. Take ITFYEDRAFQGRSYETTTDCHNLQPYFSRCNSIRVESGCWMLYERPNYQGQQYLLRRGEYPDYQQWMGLSDSIRSC [P21H]: the abundance fitness was -0.164 ± 0.18. In the case of ITFYEDRAFQGRSYETTTDCTNLQPYFSRCNSIRVESGCWMLYERPNYQGQQYLLRRGEYPDYQQWMGLSDSIRSC [P21T], the abundance fitness worked out at 0.006 ± 0.097. The same measure for ITFYEDRAFQGRSYETTTDCWNLQPYFSRCNSIRVESGCWMLYERPNYQGQQYLLRRGEYPDYQQWMGLSDSIRSC [P21W]: -0.05 ± 0.12; for ITFYEDRAFQGRSYETTTDCNNLQPYFSRCNSIRVESGCWMLYERPNYQGQQYLLRRGEYPDYQQWMGLSDSIRSC [P21N]: 0.112 ± 0.18.

For the variant ITFYEDRAFQGRSYETTTDCFNLQPYFSRCNSIRVESGCWMLYERPNYQGQQYLLRRGEYPDYQQWMGLSDSIRSC [P21F], the abundance fitness is -0.161 ± 0.24. For ITFYEDRAFQGRSYETTTDCGNLQPYFSRCNSIRVESGCWMLYERPNYQGQQYLLRRGEYPDYQQWMGLSDSIRSC [P21G], the abundance fitness came out at 0.053 ± 0.055.

For the variant ITFYEDRAFQGRSYETTTDCSNLQPYFSRCNSIRVESGCWMLYERPNYQGQQYLLRRGEYPDYQQWMGLSDSIRSC [P21S], the abundance fitness is -0.19 ± 0.083. The same measure for ITFYEDRAFQGRSYETTTDCLNLQPYFSRCNSIRVESGCWMLYERPNYQGQQYLLRRGEYPDYQQWMGLSDSIRSC [P21L]: -0.023 ± 0.059; for ITFYEDRAFQGRSYETTTDCCNLQPYFSRCNSIRVESGCWMLYERPNYQGQQYLLRRGEYPDYQQWMGLSDSIRSC [P21C]: -0.119 ± 0.1. As for ITFYEDRAFQGRSYETTTDCQNLQPYFSRCNSIRVESGCWMLYERPNYQGQQYLLRRGEYPDYQQWMGLSDSIRSC [P21Q], the abundance fitness was 0.016 ± 0.086. With ITFYEDRAFQGRSYETTTDCKNLQPYFSRCNSIRVESGCWMLYERPNYQGQQYLLRRGEYPDYQQWMGLSDSIRSC [P21K], the abundance fitness turned out to be 0.016 ± 0.12. In the case of ITFYEDRAFQGRSYETTTDCANLQPYFSRCNSIRVESGCWMLYERPNYQGQQYLLRRGEYPDYQQWMGLSDSIRSC [P21A] it was -0.028 ± 0.11; in that of ITFYEDRAFQGRSYETTTDCMNLQPYFSRCNSIRVESGCWMLYERPNYQGQQYLLRRGEYPDYQQWMGLSDSIRSC [P21M], 0.075 ± 0.099; in that of ITFYEDRAFQGRSYETTTDCRNLQPYFSRCNSIRVESGCWMLYERPNYQGQQYLLRRGEYPDYQQWMGLSDSIRSC [P21R], -0.131 ± 0.052. For the variant ITFYEDRAFQGRSYETTTDCENLQPYFSRCNSIRVESGCWMLYERPNYQGQQYLLRRGEYPDYQQWMGLSDSIRSC [P21E], the abundance fitness is -0.074 ± 0.13. Regarding ITFYEDRAFQGRSYETTTHCPNLQPYFSRCNSIRVESGCWMLYERPNYQGQQYLLRRGEYPDYQQWMGLSDSIRSC [D19H], the abundance fitness is -0.074 ± 0.17. For the variant ITFYEDRAFQGRSYETTTACPNLQPYFSRCNSIRVESGCWMLYERPNYQGQQYLLRRGEYPDYQQWMGLSDSIRSC [D19A], the abundance fitness is -0.086 ± 0.09. On to ITFYEDRAFQGRSYETTTTCPNLQPYFSRCNSIRVESGCWMLYERPNYQGQQYLLRRGEYPDYQQWMGLSDSIRSC [D19T], for which the abundance fitness is -0.135 ± 0.12. For the variant ITFYEDRAFQGRSYETTTICPNLQPYFSRCNSIRVESGCWMLYERPNYQGQQYLLRRGEYPDYQQWMGLSDSIRSC [D19I], the abundance fitness is -0.011 ± 0.18. As to ITFYEDRAFQGRSYETTTGCPNLQPYFSRCNSIRVESGCWMLYERPNYQGQQYLLRRGEYPDYQQWMGLSDSIRSC [D19G], the abundance fitness is -0.101 ± 0.067. On to ITFYEDRAFQGRSYETTTECPNLQPYFSRCNSIRVESGCWMLYERPNYQGQQYLLRRGEYPDYQQWMGLSDSIRSC [D19E], for which the abundance fitness was -0.063 ± 0.095. Consider ITFYEDRAFQGRSYETTTYCPNLQPYFSRCNSIRVESGCWMLYERPNYQGQQYLLRRGEYPDYQQWMGLSDSIRSC [D19Y], for which the abundance fitness was -0.187 ± 0.24. Regarding ITFYEDRAFQGRSYETTTCCPNLQPYFSRCNSIRVESGCWMLYERPNYQGQQYLLRRGEYPDYQQWMGLSDSIRSC [D19C], the abundance fitness is -0.052 ± 0.15. Regarding ITFYEDRAFQGRSYETTTWCPNLQPYFSRCNSIRVESGCWMLYERPNYQGQQYLLRRGEYPDYQQWMGLSDSIRSC [D19W], the abundance fitness stood at 0.059 ± 0.12. The same measure for ITFYEDRAFQGRSYETTTPCPNLQPYFSRCNSIRVESGCWMLYERPNYQGQQYLLRRGEYPDYQQWMGLSDSIRSC [D19P]: -0.35 ± 0.16. Turning to ITFYEDRAFQGRSYETTTMCPNLQPYFSRCNSIRVESGCWMLYERPNYQGQQYLLRRGEYPDYQQWMGLSDSIRSC [D19M], the abundance fitness was -0.037 ± 0.091. For ITFYEDRAFQGRSYETTTVCPNLQPYFSRCNSIRVESGCWMLYERPNYQGQQYLLRRGEYPDYQQWMGLSDSIRSC [D19V], the abundance fitness is -0.101 ± 0.089. In the case of ITFYEDRAFQGRSYETTTLCPNLQPYFSRCNSIRVESGCWMLYERPNYQGQQYLLRRGEYPDYQQWMGLSDSIRSC [D19L] it was 0.042 ± 0.1. In the case of ITFYEDRAFQGRSYETTTQCPNLQPYFSRCNSIRVESGCWMLYERPNYQGQQYLLRRGEYPDYQQWMGLSDSIRSC [D19Q] it was -0.032 ± 0.12; in that of ITFYEDRAFQGRSYETTTRCPNLQPYFSRCNSIRVESGCWMLYERPNYQGQQYLLRRGEYPDYQQWMGLSDSIRSC [D19R], -0.027 ± 0.075.
